From patent US20210087244A1 come the findings set out here.

The target in this experiment is A-beta42 Monomer (human). Kind of experiment: SPR direct binding (MASS-1), hybridoma supernatant over immobilized antigen.
Chain of A-beta42 Monomer (human) (peptide, as listed by the source): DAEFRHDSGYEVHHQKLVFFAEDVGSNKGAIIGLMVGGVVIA

B1: 301-12G11 (17) (antibody, V domains shown)
VH: QVQLQQPGAELVKPGASVKMSCKASGYSFTSYWINWVKQRPGQGLEWIGDVHPGRGVSTYNAKFKSKATLTLDTSSSTAYMQLSSLTSEDSAVYYCSRSHGNTYWFFDVWGAGTTVTVSS
VL: DVLMTQTPLSLPVSLGDQASISCRSSQSIVHSNGNTYLEWYLQKPGQSPKLLIYKVSNRFSGVPDRFSGSGSGTDFTLKISRVEAEDLGVYYCFQGSHVPFTFGSGTKLEIKR
Consider B1, for which the response units (RU) turned out to be 46 RU.
